Experimental data published in article PMC2120335 (The Journal of Cell Biology, 1995).

B1: 590C, smaller COOH-terminal fragment of scruin (domain or fragment)
chain: VIIGTGGVDLRDPMNIAYGRSVFQYHPLKDRWEFFGYMPQPRNYHAAAYYRSAIYITGGYDPDVRTWGEMVATKTTFVYELASKNWTRMGDMRCARSHHSLLVFNDVLYAIGGRDDIGRLVSSVESYDHESNEWTMEKSMPSPRMGMAAVAHGGYIWLLGGLTSMTTEEPPVLDDVLCYDPVFKHWVDGRPLRIGRAFGNAAVCDNKIWLCGGAAPSTDENNYLVSVPAIDVYDEETMEWKQKTSLGCPRHSAIVVALESCLYIAGGVNSHELSATSRNELYMVDNDTIQTVRELPIPLTGMAAVTIPPKCVTFRSESLSIMIRHKVTP
B2: 454C, COOH-terminal half of scruin (domain or fragment)
chain: MQQGDSSGSTMLEGNDRISGRIRTYISGYRPLPPDQDDLSKELVPVSIPFWPPDPDTTDSVFHTVRDQYRNPEEQMGFKHFYTIPRQMDPNLGMLLFMDEDYQHSKKVLGLRSVESVPYYINRFQASGTIQDNTIPVIIGTGGVDLRDPMNIAYGRSVFQYHPLKDRWEFFGYMPQPRNYHAAAYYRSAIYITGGYDPDVRTWGEMVATKTTFVYELASKNWTRMGDMRCARSHHSLLVFNDVLYAIGGRDDIGRLVSSVESYDHESNEWTMEKSMPSPRMGMAAVAHGGYIWLLGGLTSMTTEEPPVLDDVLCYDPVFKHWVDGRPLRIGRAFGNAAVCDNKIWLCGGAAPSTDENNYLVSVPAIDVYDEETMEWKQKTSLGCPRHSAIVVALESCLYIAGGVNSHELSATSRNELYMVDNDTIQTVRELPIPLTGMAAVTIPPKCVTFRSESLSIMIRHKVTP

Target: the molecule itself
Assay: negative-stain electron microscopy + sedimentation assay

Protein	binding result
B1	binds
B2	binds
